In assay [1] the target is Myo19-3xIQ-BioTag (human myosin-19 motor domain and IQ region with N-terminal FLAG tag and C-terminal biotin tag) (human) (UniProt Q96H55).
Assay [2] shares this target. The source holds these as a separate data set.
The target is the same in assay [3]. Put plainly: co-sedimentation; about 2 μM Myo19-3xIQ-BioTag preparation, 4 μM F-actin, 10 μM CaM in S-Buffer (15 mM Hepes pH 7.5, 7 mM imidazole, 125 mM NaCl, 5 mM MgCl2, 1 mM EGTA, 1 mM DTT), 200,000g 20 min; pellet on SDS-PAGE, gel densitometry with BSA, RLC12B and CaM standards; no calcium.
Assay [4] shares this target. Nature of the assay: co-sedimentation; as a4 with 1.1 mM CaCl2 added (0.1 mM free Ca2+).
Assay [5] shares this target. Nature of the assay: SEC-MALS; complex fixed with glutaraldehyde during 5 to 30% glycerol gradient centrifugation (GraFix; 20 mM Hepes pH 7.5, 0.2 M NaCl, 5 mM MgCl2, 1 mM EGTA, 4 °C, without calcium), then TSKgel SuperSW2000 with MALS. (Size exclusion chromatography separates by hydrodynamic size, large species first.)
Assay [6] shares this target. This is another data set of the same source.
In assay [7] the target is T1, Myo19-3xIQ-BioTag (human myosin-19 motor domain and IQ region with N-terminal FLAG tag and C-terminal biotin … (human, UniProt Q96H55 1-851, biotinylated on the BioTag during expression)).
T1 construct: also called HC; biotinylated Myo19; not shown: biotin tag (BioTag), C-terminal, kept
Put plainly: co-sedimentation; about 2 μM Myo19-3xIQ-BioTag preparation, 4 μM F-actin, 10 μM CaM in S-Buffer (15 mM Hepes pH 7.5, 7 mM imidazole, 125 mM NaCl, 5 mM MgCl2, 1 mM EGTA, 1 mM DTT), 200,000g 20 min; pellet on SDS-PAGE, gel densitometry with BSA, RLC12B and CaM standards; no calcium. The conditions noted are these: both partners purified.

Assay [8] has as its target T1, Myo19-3xIQ-BioTag (human myosin-19 …). Nature of the assay: SEC-MALS; complex fixed with glutaraldehyde during 5 to 30% glycerol gradient centrifugation (GraFix; 20 mM Hepes pH 7.5, 0.2 M NaCl, 5 mM MgCl2, 1 mM EGTA, 4 °C, without calcium), then TSKgel SuperSW2000 with MALS. As to conditions: both partners purified.

We go through three molecules from publication PMC9929473, “Ensembles of human myosin-19 bound to calmodulin and regulatory light chain RLC12B drive multimicron transport” (The Journal of Biological Chemistry, 2023).

In assay [1], “RLC12B purified from E. coli (MBP removed by TEV protease) (from UniProt O14950 1-172) (natural protein)” came in with an actin gliding speed of Myo19-3xIQ-BioTag (copurified with RLC12B and CaM) against added RLC12B alone, 37 °C; maximal speed at 1 μM RLC12B of 150 nm/s; an actin gliding speed with 4 μM CaM fixed against increasing RLC12B; IC50 of an inhibition fit of 200 nM. In assay [2], the actin gliding speed when 1 μM RLC12B was added in solution in the presence of CaM was determined as 250 nm/s.
As to “Calmodulin (CaM) coexpressed with Myo19-3xIQ-BioTag in Sf9 cells and added in excess (from UniProt P0DP23 1-149) (natural protein)”, in assay [1], the actin gliding speed of Myo19-3xIQ-BioTag (copurified with RLC12B and CaM) against added CaM, 37 °C, no calcium; EC50 of a hyperbolic fit amounted to 700 nM. Moreover, in assay [3], the CaM to RLC12B ratio bound to Myo19-3xIQ (CaM per RLC12B) was found to be 1.9 and the stoichiometry N (in general, a count of units in the complex or per binding partner) worked out at 3.4. Further, the CaM:RLC12B ratio bound to Myo19-3xIQ (CaM per RLC12B) in assay [4] was 2.8. Besides, the stoichiometry N in assay [5] came out at 2. Moreover, in assay [6], the actin gliding speed with 0.1 mM free calcium against added CaM (0.1 to 10 μM CaM–Ca2+); highest speed at 4 μM came to 210 nm/s. In assay [2], the actin gliding speed of Myo19 coexpressed with CaM alone against added CaM in the presence of 1 μM RLC12B; EC50 of a hyperbolic fit was found to be 200 nM and the actin gliding speed of Myo19 coexpressed with CaM alone against added CaM; EC50 of a hyperbolic fit came to 200 nM.

B1: RLC12B coexpressed with Myo19-3xIQ-BioTag in Sf9 cells (natural protein, human, UniProt O14950 1-172, looked up)
chain: MSSKKAKTKTTKKRPQRATSNVFAMFDQSQIQEFKEAFNMIDQNRDGFIDKEDLHDMLASLGKNPTDAYLDAMMNEAPGPINFTMFLTMFGEKLNGTDPEDVIRNAFACFDEEATGTIQEDYLRELLTTMGDRFTDEEVDELYREAPIDKKGNFNYIEFTRILKHGAKDKDD
notes: Myosin regulatory light chain 12B (RLC12B), O14950-1; also called MYL12B; source: Sf9-baculovirus, coexpressed and copurified with Myo19-3xIQ-BioTag
On to B1, for which the results for the “stoichiometry N” value in assay [7] and in assay [8] were 1.8 and 1, respectively.
